Assay results published in PMC8440923, “Peptides Targeting the Interaction Between Erb1 and Ytm1 Ribosome Assembly Factors” (Frontiers in Molecular Biosciences, 2021).

B1: Erb1 (Chaetomium thermophilum ribosome assembly factor) (natural protein, UniProt G0SCK6 1-801, looked up)
chain: MGSKIVEKKRKSRDSDSESDNELGDGLFDGVLSQSEDEEDYIPSSEVDEDDDDDADESASEDSDDSNDSEDDEVEEDDEALLSDEIPSEGESEKDQDLAESKESKQDQDKEPSEPEILEPFVDPPRKEDEELEDRNYRIEKDANGGIRYVYDEIDPVYDSDDTDYNVPVNTIGNIPLSFYDSYPHIGYDINGKKIMRPATGDALQNLLDSIEVPEGWTGLTDPNTGKPLNLSRDELELIRKVQQGLIPDDVEDPYPDTVEWFTSVEEKMPLSAAPEPKRRFIPSKNEAKQIMKLVRAIREGRILPYKPPEEREREELEKEEEFYDLWQNEEPQPPNPMHIPAPKLPPPGYDLSYNPPPEYLPTKEEREEWEKMDPEDREKDYLPTKYDSLRKVPAWGNFVKERFERCMDLYLAPRVRKNRLNIDPNSLLPKLPSPDELKPFPTVQQTIFRGHEGRVRSVAIDPTGVALATGGDDGTVRVWELLTGRQVWSVKLNGDEAVNTVRWRPTKDTFILAAAAGEDIFLMIPTHPSVTPALDQASRDILNAGFGHATNGKQQANLPPGKEPPGKWARPGTRLEDEGVLLRITVRSTIKAISWHRRGDHFATVSPSGQRSSVAIHTLSKHLTQIPFRKLNGLAQTASFHPLRPLFFVATQRSIRCYDLQKLELVKIVQPGAKWISSFDVHPGGDNLVVGSYDKRLLWHDLDLSNRPYKTMRFHTEAIRAVRFHKGGLPLFADASDDGSLQIFHGKVPNDQLENPTIVPVKMLKGHKVVNKLGVLDIDWHPREPWCVSAGADGTARLWM
notes: Erb1, Chaetomium thermophilum; cloned in pET28-NKI/LIC 6His/3C; Erb1 was held on Ni-NTA biosensors; source: E. coli (DE3) BL21 CodonPlus (RIPL), auto-induction, purified (Histrap-HP Ni, HiTrap Heparin, Superdex 200 SEC)
B2: Ytm1 (Chaetomium thermophilum ribosome assembly factor) (natural protein)
chain: MDAPMEDAPAPVAQVKVIFTTTEPDLELPESKRQLLVPADIRRYGLSRILNSESMLDTGSIPFDFLINGSFLRSSLEDYLTSNGLSLETTLTLQYVRSLIPPVYEASFEHDDWVSAVDVLSATSPAGRWSSAANSSAAVQPGQERVLSASYDGLLRIWNASGSVIATSPSGSHGGHTASIKAAKFLTSDRLASAGMDRTVRVWKYTESDHFTGELKPTLELYGHTGSVDWLDVDGHSKHILTASADGAIGFWSASKASAPEPDASLLPGAHVSKRRKATSSVSTAQRGPLGLWSIHTAPATAAIFDPRDRTVAYSASQDHTVRTLDLTTGQVVSTLTLTHPLLSLSALTRAGTTSPLLAAGTSARHITMVDPRASSATTSVMTLRGHANKVVSLSPSPENEYSLVSGSHDGTCRVWDLRSVRPATKEEGSLGGVSEPVYVIERESWASKGKKKRPVAGDGCKVFSVVWDKLGIFSGGEDKKVQVNRGRNIVTEQK
notes: Ytm1, Chaetomium thermophilum; YTM1 gene amplified from total cDNA and cloned in pOPIN-F; For MST, Ytm1 was labelled with the Red-NHS second-generation dye; source: Sf9 insect cells (baculovirus), purified (Histrap-HP Ni, Superdex 200 SEC)

Legend:
Conditions in all cases: both partners purified
[1] = target: B2; experiment: BLI; interference assay; Ytm1 (80 µg/ml) immobilised on Ni-NTA biosensor; 20 µM Erb1 preincubated with equimolar Ytm1-derived peptide (P4-P6) as analyte; 50 mM HEPES pH 7.5, 150 mM NaCl, 5% glycerol, 2 mM BME
[2] = target: B1; experiment: BLI; BLItz; Ytm1 (80 µg/ml) immobilised on Ni-NTA biosensor, Erb1 as analyte; 50 mM HEPES pH 7.5, 150 mM NaCl, 5% glycerol, 2 mM BME; reference without peptide
[3] = target: B1; experiment: BLI; BLItz; Erb1 (80 µg/ml) immobilised on Ni-NTA biosensor, increasing concentrations of Ytm1 as analyte; 50 mM HEPES pH 7.5, 150 mM NaCl, 5% glycerol, 2 mM BME; reference without peptide
[4] = target: B1; experiment: BLI; interference assay; Erb1 (80 µg/ml) immobilised on Ni-NTA biosensor; 5 µM Ytm1 preincubated 30 min with equimolar Erb1-derived peptide (P1-P3) as analyte; 50 mM HEPES pH 7.5, 150 mM NaCl, 5% glycerol, 2 mM BME

Binder | KD after preincubation of Erb1 with equimolar P6 [1] | Kd [2] | Kd [3] | KD after preincubation of Ytm1 with equimolar P1 [4] | KD after preincubation of Ytm1 with equimolar P3 [4]
B1 | 2400 nM |  |  |  | 
B2 |  | 229 nM | 32.3 nM | 190 nM | 170 nM
